Patent publication US20030108916

Columns and labels:
GST-Xchk1(306-352) S344A = GST-Xchk1(306-352) S344A (UniProt Q6DE87)
GST-Xchk1(347-374) S365A = GST-Xchk1(347-374) S365A (UniProt Q6DE87)
[1] = test system: PHAS-I (model substrate protein)
[2] = biological target: GST-Xchk1(306-352) S344A+T314A (UniProt Q6DE87)
GST-Xchk1(306-352) T314A = GST-Xchk1(306-352) T314A (UniProt Q6DE87)
[3] = biological target: GST-Xchk1-N135A (kinase inactive Xchk1 mutant, bacterially expressed) (UniProt Q6DE87)
[4] = biological target: GST-Xchk1(347-374) S365A+S356A (UniProt Q6DE87)
Sequence of GST-Xchk1(347-374) S365A+S356A (Q6DE87 whole entry S356A/S365A, looked up, tested part not stated): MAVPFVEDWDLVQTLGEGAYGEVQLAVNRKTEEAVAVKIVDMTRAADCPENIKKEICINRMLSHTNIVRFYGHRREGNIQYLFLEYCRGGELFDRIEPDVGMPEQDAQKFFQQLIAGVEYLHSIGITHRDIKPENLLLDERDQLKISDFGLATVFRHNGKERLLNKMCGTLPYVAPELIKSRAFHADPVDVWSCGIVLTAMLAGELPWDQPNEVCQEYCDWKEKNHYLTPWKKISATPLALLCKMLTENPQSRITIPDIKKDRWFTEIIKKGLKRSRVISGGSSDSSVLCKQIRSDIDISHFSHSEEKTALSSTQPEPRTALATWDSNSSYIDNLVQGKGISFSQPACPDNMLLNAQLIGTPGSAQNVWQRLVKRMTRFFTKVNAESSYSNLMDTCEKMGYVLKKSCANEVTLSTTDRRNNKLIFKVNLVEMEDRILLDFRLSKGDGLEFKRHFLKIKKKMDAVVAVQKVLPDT

GST-Xchk1(347-374) S356A = GST-Xchk1(347-374) S356A (UniProt Q6DE87)
Sequence of GST-Xchk1(347-374) S356A (Q6DE87 whole entry S356A, looked up, the tested form may be a part): as the sequence (Q6DE87 whole entry S356A/S365A, looked up, tested part not stated) above, with A365S counted along it

[5] = biological target: GST-Xchk1(347-374), wildtype peptide fragment (UniProt Q6DE87)
Sequence of GST-Xchk1(347-374), wildtype peptide fragment (Q6DE87 347-374): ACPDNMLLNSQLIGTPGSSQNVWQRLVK

[6] = biological target: GST-Xchk1(306-352), wild type peptide fragment (UniProt Q6DE87)
Sequence of GST-Xchk1(306-352), wild type peptide fragment (Q6DE87 306-352): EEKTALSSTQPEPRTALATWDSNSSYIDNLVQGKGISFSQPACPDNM

[7] = biological target: GST-Xchk1-N135A-4AQ (bacterially expressed) (UniProt Q6DE87)
Sequence of GST-Xchk1-N135A-4AQ (bacterially expressed) (Q6DE87 whole entry N135A, looked up): as the sequence (Q6DE87 whole entry S356A/S365A, looked up, tested part not stated) above, with N135A, A356S, A365S counted along it

Sequence of Xenopus laevis ATR (Xatr), endogenous protein in Xenopus egg extracts (chain, as listed by the source): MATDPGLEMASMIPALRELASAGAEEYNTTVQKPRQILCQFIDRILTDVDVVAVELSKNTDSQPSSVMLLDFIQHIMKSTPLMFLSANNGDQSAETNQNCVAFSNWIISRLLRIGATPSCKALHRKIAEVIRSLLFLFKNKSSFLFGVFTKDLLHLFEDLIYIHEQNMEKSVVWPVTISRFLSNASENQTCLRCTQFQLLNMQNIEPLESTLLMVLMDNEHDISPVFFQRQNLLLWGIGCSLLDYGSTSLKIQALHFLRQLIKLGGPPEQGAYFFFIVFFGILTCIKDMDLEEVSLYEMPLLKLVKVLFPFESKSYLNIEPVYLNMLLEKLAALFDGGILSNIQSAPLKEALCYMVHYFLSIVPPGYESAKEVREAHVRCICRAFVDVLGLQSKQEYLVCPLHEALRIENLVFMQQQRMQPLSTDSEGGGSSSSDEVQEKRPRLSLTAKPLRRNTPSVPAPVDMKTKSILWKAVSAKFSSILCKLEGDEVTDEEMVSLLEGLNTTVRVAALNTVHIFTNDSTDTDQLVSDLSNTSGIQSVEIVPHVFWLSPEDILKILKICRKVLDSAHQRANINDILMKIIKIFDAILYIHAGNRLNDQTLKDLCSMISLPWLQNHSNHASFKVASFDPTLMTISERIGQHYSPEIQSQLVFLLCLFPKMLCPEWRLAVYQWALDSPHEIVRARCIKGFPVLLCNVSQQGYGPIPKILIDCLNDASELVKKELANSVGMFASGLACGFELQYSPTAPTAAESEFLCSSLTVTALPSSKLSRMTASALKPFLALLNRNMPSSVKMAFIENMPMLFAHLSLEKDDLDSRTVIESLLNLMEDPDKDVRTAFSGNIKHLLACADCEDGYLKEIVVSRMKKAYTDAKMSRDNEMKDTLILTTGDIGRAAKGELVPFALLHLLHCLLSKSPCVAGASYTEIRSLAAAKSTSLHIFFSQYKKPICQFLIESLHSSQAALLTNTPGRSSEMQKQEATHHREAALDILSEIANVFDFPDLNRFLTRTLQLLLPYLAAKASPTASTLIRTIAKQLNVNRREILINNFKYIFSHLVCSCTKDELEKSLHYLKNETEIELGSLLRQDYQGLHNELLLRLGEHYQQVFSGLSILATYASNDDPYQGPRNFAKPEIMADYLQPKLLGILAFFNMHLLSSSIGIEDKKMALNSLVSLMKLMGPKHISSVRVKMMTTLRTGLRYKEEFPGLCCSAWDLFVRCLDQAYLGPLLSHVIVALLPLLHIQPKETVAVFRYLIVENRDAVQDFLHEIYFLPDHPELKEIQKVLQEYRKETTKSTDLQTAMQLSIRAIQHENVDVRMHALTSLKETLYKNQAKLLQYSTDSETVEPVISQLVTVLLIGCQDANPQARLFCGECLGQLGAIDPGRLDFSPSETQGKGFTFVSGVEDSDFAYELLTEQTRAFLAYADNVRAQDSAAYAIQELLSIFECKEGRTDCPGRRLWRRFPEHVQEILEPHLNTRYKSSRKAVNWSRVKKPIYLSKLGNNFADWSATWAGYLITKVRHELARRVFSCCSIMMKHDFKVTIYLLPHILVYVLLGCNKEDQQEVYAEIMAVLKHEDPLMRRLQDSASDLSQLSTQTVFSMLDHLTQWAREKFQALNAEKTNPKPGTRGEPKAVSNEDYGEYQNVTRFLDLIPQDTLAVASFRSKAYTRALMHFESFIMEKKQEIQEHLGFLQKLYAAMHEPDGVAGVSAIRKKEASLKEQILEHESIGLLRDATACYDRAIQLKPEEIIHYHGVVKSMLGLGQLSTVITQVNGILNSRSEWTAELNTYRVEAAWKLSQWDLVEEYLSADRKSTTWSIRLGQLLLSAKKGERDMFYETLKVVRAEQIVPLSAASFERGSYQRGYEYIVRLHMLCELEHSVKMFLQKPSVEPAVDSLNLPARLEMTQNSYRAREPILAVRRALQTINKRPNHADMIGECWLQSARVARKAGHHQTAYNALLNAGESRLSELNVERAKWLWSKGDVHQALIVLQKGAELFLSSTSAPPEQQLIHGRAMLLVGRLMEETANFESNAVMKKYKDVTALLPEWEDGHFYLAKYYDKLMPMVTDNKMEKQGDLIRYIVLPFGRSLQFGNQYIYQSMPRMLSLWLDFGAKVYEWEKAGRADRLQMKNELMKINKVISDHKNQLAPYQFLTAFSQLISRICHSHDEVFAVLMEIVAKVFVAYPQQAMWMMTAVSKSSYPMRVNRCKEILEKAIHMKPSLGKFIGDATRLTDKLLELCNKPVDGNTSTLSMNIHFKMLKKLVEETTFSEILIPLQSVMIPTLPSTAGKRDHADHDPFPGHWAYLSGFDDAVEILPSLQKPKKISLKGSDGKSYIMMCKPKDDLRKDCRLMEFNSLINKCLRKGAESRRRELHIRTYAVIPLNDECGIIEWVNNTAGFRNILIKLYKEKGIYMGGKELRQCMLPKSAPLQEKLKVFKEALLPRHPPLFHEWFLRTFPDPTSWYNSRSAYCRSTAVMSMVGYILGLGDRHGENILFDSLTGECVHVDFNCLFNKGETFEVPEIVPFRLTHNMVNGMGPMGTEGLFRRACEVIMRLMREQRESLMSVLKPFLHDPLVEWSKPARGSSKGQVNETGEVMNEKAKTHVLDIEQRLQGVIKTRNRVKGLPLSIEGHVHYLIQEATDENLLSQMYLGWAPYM
Sequence of GST-Xchk1(306-352) T314A (Q6DE87 whole entry T314A, looked up, tested part not stated): as the sequence (Q6DE87 whole entry S356A/S365A, looked up, tested part not stated) above, with T314A, A356S, A365S counted along it
Sequence of GST-Xchk1(306-352) S344A+T314A (Q6DE87 whole entry T314A/S344A, looked up, tested part not stated): as the sequence (Q6DE87 whole entry S356A/S365A, looked up, tested part not stated) above, with T314A, S344A, A356S, A365S counted along it
Sequence of GST-Xchk1(306-352) S344A (Q6DE87 whole entry S344A, looked up, tested part not stated): as the sequence (Q6DE87 whole entry S356A/S365A, looked up, tested part not stated) above, with S344A, A356S, A365S counted along it
Sequence of GST-Xchk1(347-374) S365A (Q6DE87 whole entry S365A, looked up, tested part not stated): as the sequence (Q6DE87 whole entry S356A/S365A, looked up, tested part not stated) above, with A356S counted along it
Sequence of GST-Xchk1-N135A (kinase inactive Xchk1 mutant, bacterially expressed) (Q6DE87 whole entry N135A, looked up): as the sequence (Q6DE87 whole entry S356A/S365A, looked up, tested part not stated) above, with N135A, A356S, A365S counted along it

Row | Substance | in vitro phosphorylation of Xchk1 peptides (GST-Xchk1(306-352) S344A) | in vitro phosphorylation of Xchk1 peptides (GST-Xchk1(347-374) S365A) | phosphorylation of PHAS-I (in vitro kinase assay, autoradiography) [1] | in vitro phosphorylation of Xchk1 peptides [2] | in vitro phosphorylation of Xchk1 peptides (GST-Xchk1(306-352) T314A) | in vitro phosphorylation (32P-ATP, autoradiography) [3] | in vitro phosphorylation of Xchk1 peptides [4] | in vitro phosphorylation of Xchk1 peptides (GST-Xchk1(347-374) S356A) | in vitro phosphorylation of Xchk1 peptides [5] | in vitro phosphorylation of Xchk1 peptides [6] | in vitro phosphorylation (32P-ATP, autoradiography) [7]
1 | Xenopus laevis ATR (Xatr), endogenous protein in Xenopus egg extracts | Xatr phosphorylated Xchk1 when a single SQ or TQ site is mutated although the level of phosphorylation is significantly reduced in comparison to that observed with wildtype peptide | Xatr phosphorylated Xchk1 when a single SQ or TQ site is mutated although the level of phosphorylation is significantly reduced in comparison to that observed with wildtype peptide | these immunoprecipitates phosphorylated a model substrate protein (PHAS-I) in vitro | mutation of both sites within each peptide (S365A+S356A or S344A+T314A) abolished phosphorylation by Xatr (lanes 4 and 8) | Xatr phosphorylated Xchk1 when a single SQ or TQ site is mutated although the level of phosphorylation is significantly reduced in comparison to that observed with wildtype peptide | Xatr phosphorylates Xchk1 in vitro (compare lane 5 to lane 6) | mutation of both sites within each peptide (S365A+S356A or S344A+T314A) abolished phosphorylation by Xatr (lanes 4 and 8) | Xatr phosphorylated Xchk1 when a single SQ or TQ site is mutated although the level of phosphorylation is significantly reduced in comparison to that observed with wildtype peptide | Xatr phosphorylated both of the wildtype peptide fragments (lanes 1 and 5-top panel) | Xatr phosphorylated both of the wildtype peptide fragments (lanes 1 and 5-top panel) | the resulting mutant (GST-Xchk1-N135A-4AQ) was not phosphorylated by Xatr (lane 4)
2 | Wildtype human Flag-tagged ATR isolated from 293T cells | human ATR phosphorylated each of the single point mutant Chk1 substrates (S365A, S356A, S344A and T314A); the level of phosphorylation of the single mutant forms of Xchk1 by human ATR is also reduced | human ATR phosphorylated each of the single point mutant Chk1 substrates (S365A, S356A, S344A and T314A); the level of phosphorylation of the single mutant forms of Xchk1 by human ATR is also reduced |  | human ATR does not phosphorylate the double mutant XChk1 substrates (S365A+S356A or S344A+T314A-as shown in lanes 4 and 12) | human ATR phosphorylated each of the single point mutant Chk1 substrates (S365A, S356A, S344A and T314A); the level of phosphorylation of the single mutant forms of Xchk1 by human ATR is also reduced |  | human ATR does not phosphorylate the double mutant XChk1 substrates (S365A+S356A or S344A+T314A-as shown in lanes 4 and 12) | human ATR phosphorylated each of the single point mutant Chk1 substrates (S365A, S356A, S344A and T314A); the level of phosphorylation of the single mutant forms of Xchk1 by human ATR is also reduced | Wildtype human ATR phosphorylated the wildtype XChk1 peptides Xchk1 (306-352) and Xchk1(347-374) | Wildtype human ATR phosphorylated the wildtype XChk1 peptides Xchk1 (306-352) and Xchk1(347-374) | 
